Data on 6 molecules can be found in patent US20080044419A1, “Treatment of T Cell Mediated Diseases by Inhibition of Fgfr3” (Fibron Ltd., priority 2003, published 2008).

Test [1] deals with T1, FGFR3 (Homo sapiens, UniProt P22607). Description: Affinity to FGFR3 measured by FACS. The format is binding.
In test [2] the target is T1, FGFR3. Description: FDCP-FGFR3 proliferation assay performed with FGF9. The format is cell-based. Conditions: dimeric dHLX format.

T1 sequence (P22607 23-806): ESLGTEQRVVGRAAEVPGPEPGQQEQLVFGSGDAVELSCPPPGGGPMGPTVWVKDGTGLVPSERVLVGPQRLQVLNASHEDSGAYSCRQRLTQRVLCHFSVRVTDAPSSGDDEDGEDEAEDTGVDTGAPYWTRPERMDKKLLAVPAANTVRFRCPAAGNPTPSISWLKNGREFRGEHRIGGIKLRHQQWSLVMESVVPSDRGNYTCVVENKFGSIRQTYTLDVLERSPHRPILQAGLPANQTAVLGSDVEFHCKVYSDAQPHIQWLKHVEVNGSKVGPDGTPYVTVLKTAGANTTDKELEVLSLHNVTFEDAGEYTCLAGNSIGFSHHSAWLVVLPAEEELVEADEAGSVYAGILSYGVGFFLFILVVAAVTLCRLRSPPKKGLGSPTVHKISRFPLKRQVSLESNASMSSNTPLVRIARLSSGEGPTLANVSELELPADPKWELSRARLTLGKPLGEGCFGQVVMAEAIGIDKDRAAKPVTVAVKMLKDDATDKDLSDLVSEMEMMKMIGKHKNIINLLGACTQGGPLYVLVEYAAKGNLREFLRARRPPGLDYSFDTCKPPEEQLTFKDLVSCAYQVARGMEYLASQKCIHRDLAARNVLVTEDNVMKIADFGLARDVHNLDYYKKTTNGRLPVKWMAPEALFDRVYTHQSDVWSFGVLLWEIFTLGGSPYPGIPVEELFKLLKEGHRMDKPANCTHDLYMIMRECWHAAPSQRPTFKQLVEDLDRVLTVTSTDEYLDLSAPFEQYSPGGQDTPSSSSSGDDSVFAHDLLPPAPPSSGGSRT

B1: PRO-026: HuCAL clone anti-FGFR3 antibody; VH-CDR3 SEQ ID NO:6, VL-CDR3 SEQ ID NO:15 (antibody, V domains shown)
VH: QVQLVQSGAEVKKPGASVKVSCKASGYTFTSYYMHWVRQAPGQGLEWMGWINPNSGGTNYAQKFQGRVTMTRDTSISTAYMELSSLRSEDTAVYYCARGYWYAYFTYINYGYFDNWGQGTLVTVSS
VL: DIALTQPASVSGSPGQSITISCTGTSSDVGGYNYVSWYQQHPGKAPKLMIYDVSNRPSGVSNRFSGSKSGNTASLTISGLQAEDEADYYCQSYDNNSDVVFGGGTKLTVLGQ
In test [1], B1 showed a Kd of 1.4 nM. In test [2], this molecule showed a half-maximal inhibitory concentration (IC50) of 70 nM.

B2: PRO-055: HuCAL clone anti-FGFR3 antibody; VH-CDR3 SEQ ID NO:9, VL-CDR3 SEQ ID NO:18 (antibody, V domains shown)
VH: QVQLVQSGAEVKKPGASVKVSCKASGYTFTSYYMHWVRQAPGQGLEWMGWINPNSGGTNYAQKFQGRVTMTRDTSISTAYMELSSLRSEDTAVYYCARSMNSTMYWYLRRVLFDHWGQGTLVTVSS
VL: DIALTQPASVSGSPGQSITISCTGTSSDVGGYNYVSWYQQHPGKAPKLMIYDVSNRPSGVSNRFSGSKSGNTASLTISGLQAEDEADYYCQSYDMYNYIVFGGGTKLTVLGQ
B2 returned an IC50 in test [2] of 34 nM.

B3: PRO-029: HuCAL clone anti-FGFR3 antibody; VH-CDR3 SEQ ID NO:7, VL-CDR3 SEQ ID NO:16 (antibody, V domains shown)
VH: QVQLVQSGAEVKKPGASVKVSCKASGYTFTSYYMHWVRQAPGQGLEWMGWINPNSGGTNYAQKFQGRVTMTRDTSISTAYMELSSLRSEDTAVYYCARTWQYSYFYYLDGGYYFDIWGQGTLVTVSS
VL: DIVLTQSPATLSLSPGERATLSCRASQSVSSSYLAWYQQKPGQAPRLLIYGASSRATGVPARFSGSGSGTDFTLTISSLEPEDFATYYCQQTNNAPVTFGQGTKVEIKRT
Turning to B3, in test [1], the Kd is less than 1 nM. Also, in test [2], half-maximal inhibition (IC50) was put at 20 nM.

B4: PRO-054: HuCAL clone anti-FGFR3 antibody; VH-CDR3 SEQ ID NO:8, VL-CDR3 SEQ ID NO:17 (antibody, V domains shown)
VH: QVQLVQSGAEVKKPGASVKVSCKASGYTFTSYYMHWVRQAPGQGLEWMGWINPNSGGTNYAQKFQGRVTMTRDTSISTAYMELSSLRSEDTAVYYCARNMAYTNYQYVNMPHFDYWGQGTLVTVSS
VL: DIELTQPPSVSVAPGQTARISCSGDALGDKYASWYQQKPGQAPVLVIYDDSDRPSGIPERFSGSNSGNTATLTISGTQAEDEADYYCQSYDYFKLVFGGGTKLTVLGQ
For B4, the midpoint of inhibition in test [2], the IC50, lay at 45 nM.

B5: PRO-002: HuCAL clone anti-FGFR3 antibody; VH-CDR3 SEQ ID NO:2, VL-CDR3 SEQ ID NO:11 (antibody, V domains shown)
VH: QVQLVQSGAEVKKPGASVKVSCKASGYTFTSYYMHWVRQAPGQGLEWMGWINPNSGGTNYAQKFQGRVTMTRDTSISTAYMELSSLRSEDTAVYYCARDFLGYEFDYWGQGTLVTVSS
VL: DIELTQPPSVSVAPGQTARISCSGDALGDKYASWYQQKPGQAPVLVIYDDSDRPSGIPERFSGSNSGNTATLTISGTQAEDEADYYCQSYDYSADYVFGGGTKLTVLGQ
With B5, the Kd in test [1] stood at 43 nM. The molecule further had a concentration for half-maximal inhibition (IC50) in test [2] of 360 nM.

B6: PRO-001: HuCAL clone anti-FGFR3 antibody; VH-CDR3 SEQ ID NO:1, VL-CDR3 SEQ ID NO:10; VH SEQ ID NO:19, VL SEQ ID NO:28 (antibody, V domains shown)
VH: QVQLQQSGPGLVKPSQTLSLTCAISGDSVSSNSAAWNWIRQSPGRGLEWLGRTYYRSKWYNDYAVSVKSRITINPDTSKNQFSLQLNSVTPEDTAVYYCARSYYPDFDYWGQGTLVTVSS
VL: DIELTQPPSVSVAPGQTARISCSGDALGDKYASWYQQKPGQAPVLVIYDDSDRPSGIPERFSGSNSGNTATLTISGTQAEDEADYYCQSYDGPDLWVFGGGTKLTVLGQ
modifications: SEQUENCE FROM PHAGE LIBRARY
In turn, B6 yielded a Kd in test [1] of 0.7 nM. In addition, the midpoint of inhibition in test [2], the IC50, lay at 19 nM.
